Measurements reported in publication PMC8517123, “Functional Interaction Between Caveolin 1 and LRRC8-Mediated Volume-Regulated Anion Channel” (Frontiers in Physiology, 2021).

Biological target: T1, Leucine-rich repeat-containing 8A (human (endogenous in HEK 293), UniProt Q8IWT6 1-810)
T1 construct: LRRC8A, essential subunit of the volume-regulated anion channel (VRAC), endogenous in HEK 293 cells; Endogenous protein in lysate; in cells it is part of heteromeric LRRC8 channels, and other subunits may be present in the precipitate; also called LRRC8A; source: endogenous, HEK 293 lysate (1% Triton X-100)
T1 sequence (looked up): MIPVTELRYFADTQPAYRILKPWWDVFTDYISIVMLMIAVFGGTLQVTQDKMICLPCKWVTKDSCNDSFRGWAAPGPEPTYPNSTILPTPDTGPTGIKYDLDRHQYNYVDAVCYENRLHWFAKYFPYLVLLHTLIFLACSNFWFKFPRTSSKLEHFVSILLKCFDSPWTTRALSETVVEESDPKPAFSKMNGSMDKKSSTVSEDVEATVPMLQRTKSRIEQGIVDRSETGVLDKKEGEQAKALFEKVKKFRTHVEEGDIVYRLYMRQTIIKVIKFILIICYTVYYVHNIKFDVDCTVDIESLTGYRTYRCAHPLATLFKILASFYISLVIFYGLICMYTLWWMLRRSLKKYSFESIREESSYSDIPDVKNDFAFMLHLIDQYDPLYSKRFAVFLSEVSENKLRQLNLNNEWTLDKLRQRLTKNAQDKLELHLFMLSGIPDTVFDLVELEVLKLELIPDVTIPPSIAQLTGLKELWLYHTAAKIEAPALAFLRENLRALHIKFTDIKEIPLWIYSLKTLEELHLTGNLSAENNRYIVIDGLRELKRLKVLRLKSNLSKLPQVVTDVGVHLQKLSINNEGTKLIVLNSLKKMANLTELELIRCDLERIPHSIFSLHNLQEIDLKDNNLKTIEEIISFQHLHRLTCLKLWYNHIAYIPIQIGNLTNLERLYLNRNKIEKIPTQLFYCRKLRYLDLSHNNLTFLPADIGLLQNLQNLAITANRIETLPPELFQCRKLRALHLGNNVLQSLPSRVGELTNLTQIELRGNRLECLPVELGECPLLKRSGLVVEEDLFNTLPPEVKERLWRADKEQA
Test: co-IP; endogenous proteins; HEK 293 cells exposed to isotonic (300 mOsm/Kg) or hypotonic (255 mOsm/Kg) solution for 7 min at 37°C; lysis in 1% Triton X-100; 100-500 μg protein with 2-4 μg anti-Cav1 or anti-LRRC8A antibody at 4°C overnight, protein A sepharose; western blot
Details: partners not purified

B1: Caveolin 1 (natural protein, human (endogenous in HEK 293), UniProt Q03135 1-178, looked up)
chain: MSGGKYVDSEGHLYTVPIREQGNIYKPNNKAMADELSEKQVYDAHTKEIDLVNRDPKHLNDDVVKIDFEDVIAEPEGTHSFDGIWKASFTTFTVTKYWFYRLLSALFGIPMALIWGIYFAILSFLHIWAVVPCIKSFLIEIQCISRVYSIYVHTVCDPLFEAVGKIFSNVRINLQKEI
notes: Caveolin 1, endogenous in HEK 293 cells; also called Cav1; source: endogenous, HEK 293 lysate (1% Triton X-100)
  LRRC8A/Cav1 ratio, hypotonic vs. isotonic (densitometry of co-IP): 2.2 ratio
